Assay results: patent US20130072665A1 (Amgen, published 2013)
Residue numbers refer to the chain shown, from its start.

T1: PCSK9 V domain (450-692 of SEQ ID NO: 3) (human, UniProt Q8NBP7 450-692)
T1 construct: also called v-domain PCSK9
T1 chain: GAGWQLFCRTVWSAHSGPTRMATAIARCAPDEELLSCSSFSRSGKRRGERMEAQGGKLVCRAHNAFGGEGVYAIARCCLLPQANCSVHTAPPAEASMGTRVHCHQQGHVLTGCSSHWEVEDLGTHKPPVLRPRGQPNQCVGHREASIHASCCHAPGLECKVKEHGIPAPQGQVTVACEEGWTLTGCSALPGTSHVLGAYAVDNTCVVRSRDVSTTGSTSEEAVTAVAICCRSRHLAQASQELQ

B1: 9H6 (antibody, V domains shown)
VH: EVQLVESGGGLVQPGGSLRLSCAASGFTFSRYWMSWVRQAPGKGLEWVANIKHDGSEKYYVDSVKGRFTISRDNAKNSLYLQMNSLRAEDTAVYYCARESNWGFAFDVWGHGTMVTVSS
VL: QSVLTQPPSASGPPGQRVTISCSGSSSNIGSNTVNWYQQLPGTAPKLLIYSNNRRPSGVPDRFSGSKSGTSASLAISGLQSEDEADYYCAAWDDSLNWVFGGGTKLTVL
B2: 23B5 (antibody, V domains shown)
VH: EVQLLESGGGLVQPGGSLRLSCAASGFTFSSYAMNWVRQAPGKGLEWVSTISGSGDNTYYADSVKGRFTISRDNSKNTLYLQMNSLRAEDTAVYYCAKKFVLMVYAMLDYWGQGTLVTVSS
VL: DILMTQSPSSLSASVGDRVTITCRASQSISSYLNWYQQKPGKAPKVLIYAASSLQSGVPSRFSGSGSGTDFTLTINSLQPEDFATYYCQQSYSSPITFGQGTRLEIK
B3: 13H1 (antibody, V domains shown)
VH: QVQLQQSGPGLVKPSQTLSLTCAISGDSVSSNSAAWNWIRQSPSRGLEWLGRTYYRSKWYKNYSVSVKSRITINPDTSKNQFSLQLNSVTPGDTAVYYCARGGPTAAFDYWGQGTLVTVSS
VL: LSALTQPASVSGSPGQSITISCTGTSSDVGNYNLVSWYQQYSGKAPKLMIYEVSKRPSGVSNRFSGSKSGNTASLTISGLQAEDEADYYCCSYAGSSTLVFGGGTKLTVL
B4: 30B9 (antibody, V domains shown)
VH: QVQLVQSGAEVKKPGASVKVSCKASGYPLTSYGISWVRQAPGQGLEWMGWISAYNGNTNYAQKVQGRVTMTTDTSTSTVYMELRSLRSDDTAVYYCARGYGMDVWGQGTTVTVSS
VL: QSALTQPASVSGSPGQSITISCTGTSSDVGGYNSVSWYQQHPGKPPKLMIYEVSNRPSGVSNRFSGSKSGNTASLTISGLQAEDEADYFCSSYTSTSMVFGGGTKLTVL
B5: 27H5 (antibody, V domains shown)
VH: B4 VH with K13R, P28T, A53V, R87S
VL: B4 VL with N62I
B6: 19H9 (antibody, V domains shown)
VH: B4 VH with P28A
VL: B4 VL with S26N, V60I
notes: also called 19H9.2
B7: 27E7 (antibody, V domains shown)
VH: B4 VH with V18L, P28S, L83V
VL: B4 VL
B8: 13B5 (antibody, V domains shown)
VH: EVQLLESGGGLVQPGGSLRLSCAASGFTFSSYAMSWVRQAPGKGLEWVSTISGSGGRTYYADSVKGRFTISRDNSKNTLYLQMNSLRAEDTAVYYCAKEVGSPFDYWGQGTLVTVSS
VL: QSVLTQPPSVSAAPGQKVTISCSGSNSNIGNNYVSWYQQLPGTAPKLLIYDNNKRPSGIPDRFSGSNSGTSATLGITGLQTGDEADYYCGTWDSSLSAVVFGGGTKLTVL
B9: 30A4 (antibody, V domains shown)
VH: QVQLVESGGGVVQPGRSLRLSCAASGFTFSSYGMHWVRQAPGKGLEWVAVIWYDGSDKYYADSVKGRFTISRDNSKNTLYLQMNSLRAEDTAVYYCARETGPLKLYYYGMDVWGQGTTVTVSS
VL: DIVMTQSPLSLSVTPGEPPSISCRSSQSLLHSNGYNFLNWYLQKPGQSPQLLIYLGSHRASGVPDRFSGSGSGTDFTLEISRVEAEDVGVYYCMQVLQTPFTFGPGTKVDIK
B10: 25G4 (antibody, V domains shown)
VH: B2 VH with D56G
VL: B2 VL with L3Q, S31I, K45Y, V46L, S52A, N76S, S94A
B11: 27B2 (antibody, V domains shown)
VH: QVQLQESGPGLVKPSQTLSLTCTVSGGSISSGGYYWSWIRQHPGKGLEWIGYIYNSGSTYYNPSLKSRVTISVDTSKNQFSLKLSSVTAADTAVYYCAREDTAMVPYFDYWGQGTLVTVSS
VL: QSVLTQPPSVSGAPGQRVTISCTGSSSNIGAHYDVHWYQQVPGTAPKLLIYGNTYRPSGVPDRFSGSKSGTSASLAITGLQAEDEADYYCQSYDNSLSGVVFGGGTKLTVL
notes: also called 27B2.3; 27B2.3-7.4
B12: 26H5 (antibody, V domains shown)
VH: B4 VH with P28T, A53F
VL: B4 VL with N62I
notes: also called 26H5-7.4
B13: 3B6 (antibody, V domains shown)
VH: B4 VH with P28T, L29F, A53T, V79A, G101T, M102R, V104Y, T110L
VL: QPVLTQPLFASASLGASVTLTCTLSSGYSSYEVDWYQQRPGKGPRFVMRVDTGGIVGSKGEGIPDRFSVLGSGLNRYLTIKNIQEEDESDYHCGADHGSGTNFVVVFGGGTKLTVL
B14: 22E2 (antibody, V domains shown)
VH: QVQLVESGGGVVQPGRSLRLSCAASGFTFSSFGMHWVRQAPGKGLEWVALIWNDGSNKYYADSVKGRFTISRDNSKNTLYLQMNSLRAEDTAVYYCARAIAALYYYYGMDVWGQGTTVTVSS
VL: B8 VL with N26S, Y33F, N52Y, N67K, A98G, V99Y, G103T, K106R, L107V
B15: 28D6 (antibody, V domains shown)
VH: B14 VH
VL: B8 VL with S9T, N26S, Y33F, N52Y, N67K, A98G, V99Y, G103T, K106R, L107V
B16: 28B12 (antibody, V domains shown)
VH: B14 VH with Q114H
VL: B8 VL with N26S, Y33F, N52Y, N67K, A98G, V99Y, G103T, K106R, L107V
B17: 27A6 (antibody, V domains shown)
VH: B14 VH with Q3H, S30N, N53S, N57D
VL: B8 VL with N26S, Y33F, L40F, N52Y, N67K, A98S, V99Y, G103T, K106R, L107V

target: T2, human PCSK9 (proprotein convertase subtilisin kexin type 9) (human, UniProt Q8NBP7 31-692); test: BIAcore solution equilibrium, pH 5.5
T2 construct: Used untagged, biotinylated, V5/His- or His-tagged depending on the assay; also called hPCSK9; huPCSK9

Row | Kd | Binder
1 | 1.4 nM | B1
2 | 0.28 nM | B2

target: T3, PCSK9 ProCat (31-449 of SEQ ID NO: 3) (human, UniProt Q8NBP7 27-449); test: domain binding ELISA (coated antibody captures the PCSK9 form; OD650)
T3 construct: From PCSK9 449TEV after rTEV cleavage: GAMG-PCSK9 (31-449)-ENLYFQ; Written as one chain; autocatalysis between 152 and 153 splits pro-domain and catalytic domain; also called procat PCSK9; PCSK9 31-449

Row | binding result | Binder
3 | binds | B3
4 | binds | B4
5 | binds | B5
6 | binds | B6
7 | binds | B7
8 | no binding | B8
9 | binds | B9
10 | binds | B1
11 | binds | B2
12 | binds | B10

Target: T1, PCSK9 V domain (450-692 of SEQ ID NO: 3)
Test: as above

Row | binding result | Binder
13 | no binding | B3
14 | no binding | B4
15 | no binding | B5
16 | no binding | B6
17 | no binding | B7
18 | no binding | B9
19 | no binding | B1
20 | no binding | B2
21 | no binding | B10

target: T2, human PCSK9 (proprotein convertase …); test: BIAcore kinetic assay 2

Row | off rate ratio pH 5.5/pH 7.4 | off rate ratio pH 6.0/pH 7.4 | Binder
22 | 1.4 | 1.3 | B11
23 | 0.5 | 0.8 | B12

target: T2, human PCSK9 (proprotein convertase …); test: BIAcore solution equilibrium, pH 6.0

Row | Kd | Binder
24 | 1.3 nM | B1
25 | 0.2 nM | B2

target: T2, human PCSK9 (proprotein convertase …); test: BIAcore kinetic assay 2, antibody captured, pH 7.4

Row | koff | Binder
26 | 0.00038 s⁻¹ | B11
27 | 0.00056 s⁻¹ | B12

target: T2, human PCSK9 (proprotein convertase …); test: BIAcore solution equilibrium, pH 7.4

Row | Kd | Binder
28 | 0.7 nM | B1
29 | 0.1 nM | B2

target: T2, human PCSK9 (proprotein convertase …); test: BIAcore kinetic assay 2, antibody captured, pH 6.0

Row | koff | Binder
30 | 0.00051 s⁻¹ | B11
31 | 0.00047 s⁻¹ | B12

target: T2, human PCSK9 (proprotein convertase …); test: BIAcore kinetic assay 2, antibody captured, pH 5.5

Row | koff | Binder
32 | 0.00052 s⁻¹ | B11
33 | 0.00026 s⁻¹ | B12

target: T3, PCSK9 ProCat (31-449 of SEQ ID NO: 3); test: domain binding ELISA (coated antibody captures the PCSK9 form; OD650); remark: another data set of the same source

Row | binding result | Binder
34 | binds | B13
35 | binds | B12
36 | binds | B14
37 | binds | B15
38 | binds | B16
39 | binds | B17

Target: T1, PCSK9 V domain (450-692 of SEQ ID NO: 3)
Test: as above
Remark: another data set of the same source

Row | binding result | Binder
40 | no binding | B13
41 | no binding | B12
42 | no binding | B14
43 | no binding | B15
44 | no binding | B16
45 | no binding | B17
